Key:
[1] = biological target: T1, human insulin receptor isoform A with C-terminal C9 tag (human, UniProt P06213 28-1382); test: 125I-insulin competition SPA, hIR-A membranes, 0.1% BSA
T1 construct: membranes of stably transfected HEK293 cells; also called hIR-A; human IR-A
Procedure: (§1) The assays are performed with a SPA method using polyvinyltoluene (PVT) wheat germ agglutinin-coupled SPA beads (Perkin Elmer). Assay buffer contains 50 mM Tris-HCl, pH 7.5, 150 mM NaCl and either A) 0.1% w/v fatty-acid free BSA; B) 0.1% w/v fatty-acid free human serum albumin (HSA); C) 0.1% w/v rat serum albumin (RSA); or D) 0.001% Nonidet P-40 Substitute (NP-40, Roche Diagnostics). Ten-point concentration response curves using three-fold serial dilutions of test samples or controls are prepared in Assay Buffer using a Freedom/Evo robot (Tecan).
(§2) Percent specific inhibition (y-axis) is plotted versus the log concentration of compound (x-axis). […] Reported Ki values are shown as the geometric mean with the standard error (Delta Method Standard Error) and the number of independent replicate determinations used to calculate the geometric mean indicated by n.

rabbit serum albumin = biological target: T2, rabbit serum albumin (rabbit, UniProt P49065 25-608); test: SPR (Biacore 8K), albumin immobilised, 25 C
T2 construct: bought protein, amine-coupled to a CM5 chip; also called Rabbit SA
Procedure: (§3) Immobilization of serum albumin to a Series S Sensor Chip CM5 surface is performed according to the manufacturer's instructions (Amine Coupling Kit BR-1000-50). Briefly, carboxyl groups on the sensor chip surfaces (flow cell 1 and 2) are activated by injecting 70 μL of a mixture containing 75 mg/ml EDC and 11.5 mg/ml NHS at 10 μL/min. Human, cynomolgus monkey, mouse, rat, pig, dog, cow and rabbit serum albumin are diluted in 10 mM NaOAc pH 4.0 (BR-1003-49) at 1, 1, 3, 1, 1, 1, 1 and 1 μg/mL and then injected over the activated chip surfaces (flow cell 2, […]) at 10 μL/min for 90 sec (human, mouse, rat, pig and cow serum albumin are obtained from Sigma Aldrich (St. Louis, Mo.); cynomolgus monkey serum albumin is obtained from Holzel Diagnostika (Cologne, Germany); dog serum albumin is obtained from Molecular Innovations (Novi, Mich.); and rabbit serum albumin is obtained from Fitzgerald Industries International (Acton, Mass.)). […] Excess reactive groups on the surfaces (flow cell 1 and 2) are deactivated by injecting 70 μL of 1 M ETA HCl—NaOH pH 8.5 at 10 μL/min.
(§4) 150 μL of sample is individually injecting sequentially across the immobilized serum albumins surface and then dissociates for 600 sec at 50 μL/min flow rate at 25° C. The surface is regenerated by injecting 10 mM glycine-HCl pH 1.5 (BR-1003-54) at 50 μL/min for 100 sec. The resulting sensorgrams are analyzed using Biacore 8K Insight Evaluation Software (version 2.0.15.12933) 1:1 binding kinetics or steady-state affinity model fitting to calculate the binding kinetic parameter association rate (ka), dissociation rate (kd), and equilibrium dissociation constant (KD)

[2] = biological target: T1, human insulin receptor isoform A with …; test: 125I-insulin competition SPA, hIR-A membranes, 0.1% HSA
Procedure: as §1, §2

cow serum albumin = biological target: T3, cow serum albumin (cow, UniProt P02769 25-607); test: SPR (Biacore 8K), albumin immobilised, 25 C, steady-state affinity
T3 construct: bought protein, amine-coupled to a CM5 chip; also called Cow SA; Bovine SA

[3] = biological target: T4, human insulin receptor isoform B with C-terminal C9 tag (human, UniProt P06213 28-1382); test: 125I-insulin competition SPA, hIR-B membranes, 0.1% BSA
T4 construct: membranes of stably transfected HEK293 cells; also called hIR-B; human IR-B
Procedure: as §1, §2

[4] = biological target: T4, human insulin receptor isoform B with …; test: 125I-insulin competition SPA, hIR-B membranes, 0.1% HSA
Procedure: as §1, §2

[5] = biological target: T1, human insulin receptor isoform A with …; test: 125I-insulin competition SPA, hIR-A membranes, 0.001% NP-40
Procedure: as §1, §2

[6] = biological target: T4, human insulin receptor isoform B with …; test: 125I-insulin competition SPA, hIR-B membranes, 0.001% NP-40
Procedure: as §1, §2

mouse serum albumin = biological target: T5, mouse serum albumin (mouse, UniProt P07724 25-608); test: SPR (Biacore 8K), albumin immobilised, 25 C, 1:1 kinetics
T5 construct: bought protein, amine-coupled to a CM5 chip; also called Mouse SA
Procedure: as §3, §4

pig serum albumin = biological target: T6, pig serum albumin (pig, UniProt P08835 25-607); test: as above
T6 construct: bought protein, amine-coupled to a CM5 chip; also called Pig SA
Procedure: as §3, §4

human serum albumin = biological target: T7, human serum albumin (human, UniProt P02768 25-609); test: as above
T7 construct: bought protein, amine-coupled to a CM5 chip; also called Human SA; HSA
Procedure: as §3, §4

dog serum albumin = biological target: T8, dog serum albumin (dog, UniProt P49822 25-608); test: as above
T8 construct: bought protein, amine-coupled to a CM5 chip; also called Dog SA
Procedure: as §3, §4

rat serum albumin = biological target: T9, rat serum albumin (rat, UniProt P02770 25-608); test: as above
T9 construct: bought protein, amine-coupled to a CM5 chip; also called Rat SA; RSA
Procedure: as §3, §4

[7] = biological target: T10, cynomolgus monkey serum albumin (cynomolgus monkey, UniProt A2V9Z4 25-608); test: as above
T10 construct: bought protein, amine-coupled to a CM5 chip; also called Cyno SA
Procedure: as §3, §4

B1: INS Analog 25 (other)
chain: FVSQHLCGSHLVEALRLVCGERGFFYTPKTGGGGGGGIVEQCCTSICSLYQLENYCGGGGGQGGGGQGGGGQGGGGQGGGGQEVQLLESGGGLVQPGGSLRLSCAASGRYIDETAVAWFRQAPGKEREFVAGIGGGVDITYYADSVKGRFTISRDNSKNTLYLQMNSLRPEDTAVYYCAARPGRPLITSKVADLYPYWGQGTLVTVSSPP
notes: single-chain insulin B-L2-A-L1-VHH fusion; also called Ex. 25
Ki [1]: 630 nM | binding result (rabbit serum albumin): no binding (tested: up to 1000 nM) | Ki [2]: 125 nM | Kd (cow serum albumin): 390 nM | Ki [3]: 790 nM | Ki [4]: 279 nM | Ki [5]: 174 nM | Ki [6]: 641 nM | Kd (mouse serum albumin): 42 nM | koff (mouse serum albumin): 0.0092 s⁻¹ | kon (mouse serum albumin): 220000 M⁻¹ s⁻¹ | Kd (pig serum albumin): 90 nM | koff (pig serum albumin): 0.011 s⁻¹ | kon (pig serum albumin): 130000 M⁻¹ s⁻¹ | Kd (human serum albumin): 0.32 nM | koff (human serum albumin): 8.4e-05 s⁻¹ | kon (human serum albumin): 260000 M⁻¹ s⁻¹ | Kd (dog serum albumin): 16 nM | koff (dog serum albumin): 0.0033 s⁻¹ | kon (dog serum albumin): 200000 M⁻¹ s⁻¹ | Kd (rat serum albumin): 34 nM | koff (rat serum albumin): 0.0066 s⁻¹ | kon (rat serum albumin): 200000 M⁻¹ s⁻¹ | Kd [7]: 3.5 nM | koff [7]: 0.00079 s⁻¹ | kon [7]: 230000 M⁻¹ s⁻¹

— patent US20220378931A1 (Eli Lilly, published 2022)
